# Experimental data taken from US20250145722A1, “ANTI-GAL3 ANTIBODIES AND METHODS OF USE” (TrueBinding, Inc., priority 2020, published 2025).
# B1: 846.2B11: anti-Gal3 antibody (antibody, V domains shown)
# VH: QVQLQQSGPELVRPGALVKISCKASGYTFTSYDINWVKQRPGQGLEWIGWIYPGDGSTKYNEKFKGKATLTADKSSSTAYMQLSSLTSENSAVYFCAREAASNAMDYWGQGTSVTVSS
# VL: DIVLTQSPASLGVSLGQRATISCRASKSVSTSGYSYMHWYQQKPGQPPKLLIYLASILESGVPARFSGSGSGTDFTLNIHPVEEEDAAIYYCQHSRELPLTFGAGTKLELK
# modifications: misc_feature 1..354 846.2B11 VH nucleic acid; misc_feature 1..333 846.2B11 VL nucleic acid
# notes: anti-Gal3 antibody
# B2: F849C.8D12: anti-Gal3 antibody (antibody, V domains shown)
# VH: EVQLQQSGPELVKPGSSVKISCKASRYTFTDYNMDWVKQSHGKRLEWIGYIYPNNGGTGYNQKFKGKATLTVDKSSSTAYMELRSLTSEDSAVYYCARSYYDGSYDAMDYWGQGTSVTVSS
# VL: DIQMTQTTSSLSASLGDRVTISCSASQGISNYLNWYQQKPDGTVKLLIYYTSSLHSGVPSRFSGSGSGTDYSLTISNLEPEDIATYYCQQYSKLPRTFGGGTKLEI
# modifications: misc_feature 1..363 849.8D12 VH nucleic acid; misc_feature 1..318 849.8D12 VL nucleic acid
# notes: anti-Gal3 antibody
# Key:
# human Gal3 = target: T1, human Gal3 (Homo sapiens, UniProt P17931); experiment: Epitope binning assay, sandwich format, SPR-based Carterra LSA; settings: competitive binding for hGAL3
# T1 construct: purchased AcroBio (Acro Biosystems) GA3-H5129
# T1 sequence (P17931 whole entry): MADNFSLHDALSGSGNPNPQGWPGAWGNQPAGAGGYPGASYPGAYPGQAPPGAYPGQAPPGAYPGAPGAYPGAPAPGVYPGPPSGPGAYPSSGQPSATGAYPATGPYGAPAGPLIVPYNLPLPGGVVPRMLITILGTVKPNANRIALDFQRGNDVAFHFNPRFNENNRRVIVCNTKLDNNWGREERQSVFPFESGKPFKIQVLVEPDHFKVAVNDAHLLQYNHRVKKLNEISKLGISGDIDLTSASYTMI
# Method: First, the purified antibodies were diluted to 10 μg/ml concentration in 10 mM NaOAc (pH 5.0) and then were covalently coupled via amine group to HC200M chip activated by EDC and S-NHS to immobilize antibodies to different positions of a 384-spot array. One hundred thirty-eight binning cycles were run on the array of immobilized antibodies. In each cycle, first, human Gal3 (AcroBio GA3-H5129) was injected over the entire array to bind to different antibodies (primary antibody), followed by one antibody (secondary antibody) selected among the panel of 150 anti-GAL3 antibodies tested. At the end of each cycle, the array was regenerated by 10 mM Glycine (pH 2.0) to remove bound antigen and secondary antibody from the array. The data analysis was done using the Epitope software by CarterraBio.
# [1] = target: T2, interaction of Gal3 and APP695 (Homo sapiens, UniProt P17931); experiment: Gal3-APP695 blocking ELISA; format: binding
# T2 construct: purchased R&D Systems; QCB200349; QCB200352; host or cells: mammalian (R&D 8259-GA) or E. coli (QCB200349)
# T2 sequence (P17931 2-250 limits assumed): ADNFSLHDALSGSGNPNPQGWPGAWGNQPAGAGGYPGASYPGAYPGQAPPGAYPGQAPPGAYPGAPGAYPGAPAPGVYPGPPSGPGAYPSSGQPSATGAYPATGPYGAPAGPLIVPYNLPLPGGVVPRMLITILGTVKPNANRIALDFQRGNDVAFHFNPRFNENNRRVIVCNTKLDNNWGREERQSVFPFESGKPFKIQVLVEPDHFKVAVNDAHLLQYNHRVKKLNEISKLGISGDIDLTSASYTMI
# Method: To identify Gal3-targeted antibodies with the ability to block the interaction of Gal3 and APP695, purified Gal3 and APP695 proteins were incubated in the presence (or absence) of various Gal3-targeted or control antibodies, or without antibody, and protein interaction was evaluated by ELISA.
# Human GAL3 (mammalian, R&D Systems, 8259-GA; E-coli derived, untagged, TrueBinding, QCB200349; or His-tagged, TrueBinding, QCB200352) was diluted in PBS (Corning, 21-030-CM) to a concentration of 4 μg/mL and added to the wells of a 96-well ELISA plate (Thermo Fisher, 44-2404-21). After incubating the plate at 4° C. overnight, the plate was washed three times with PBST (PBS with 0.05% Tween 20 [VWR, 0777]) and then blocked for an hour with 2% BSA (EMD Millipore, 126609) in PBST at room temperature with gentle rocking. Human APP695 (R&D Systems, 9937-AP) was biotinylated with EZ Link Sulfo-NHS-LC-Biotin (ThermoFisher Scientific, A39257) and desalted using a Zeba Spin Desalting Column (ThermoFisher Scientific, 89882), following the manufacturer's instructions. […] The reaction was stopped with 1M HCl (JT Baker, 5620-02) and read using a plate reader (Molecular Devices) at absorbance of 450 nm. Percent blockade of Gal3-APP695 interaction was calculated as the fraction of signal obtained in the absence of antibody with the background signal subtracted.
Molecule,Epitope bin (human Gal3),Blocking of Gal3-APP695 binding (in words) [1]
B1,bin 16,
B2,,did not impact
